Results from patent publication US20220273713A1, “METHOD OF INHIBITING OR ACTIVATING GAMMA DELTA T CELLS” (The University of Melbourne, priority 2019, published 2022).
“And” between values parts separate entries of the source, which are not always exact repeats. Identical values can stand only once. “Also recorded” adds a separate entry of the source.

How the values were obtained:
[1] = target: G115 Vγ9Vδ2+ γδTCR, wild type, on cells; assay: flow cytometry, tetramer-PE versus anti-CD3ε-APC on Jurkat G115 Vγ9Vδ2+ γδTCR cells
Vγ9Vδ2 cells [2] = assay: Luminex (Vγ9Vδ2): cytokine/chemokine secretion by pre-expanded Vγ9Vδ2 cells; type: cell-based, human; settings: for GMCSF / ICAM-1 / IFNγ / IL-4 / IL-8 / IL-13 / IL-17A / MIP-1a / MIP-1b / TNFα / sE-selectin / sP-Selectin: 16 hrs, antibodies 10 μg/ml, Zoledronic acid 4 μM, HMBPP 0.5 ng/ml, duplicates, 0 set to 0.1;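 as to all read-outs here: Vγ9Vδ2 cells purified from PBMC, activated 48 h with CD3 and CD28 plus IL-2, expanded 14 days in IL-2, then thawed and rested overnight in IL-2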
Description: Briefly, Vγ9Vδ2 cells were isolated from 1 healthy donor (Red Cross Australia) and 1 cancer patient derived PBMC using TCRγ/δ+ T Cell Isolation Kit (Miltenyi). Cells were stimulated for 48 hours in TCRPMI supplemented with 100u/ml IL-2, CD3 (10 μg/ml) and CD28 (1 μg/ml). Cells were washed and grown for 14 days in TCRPMI supplemented with 100u/ml IL-2 at 37 degrees C. and 5% CO2, and then frozen down. […] Vγ9Vδ2 were defrosted and rested overnight in TCRPMI supplemented with 50u/ml IL-2 at 37 degrees C. and 5% CO2. […] All samples were run with appropriate controls and standards.

[3] = test system: in vitro pre-expanded CD3+Vδ2+ γδ T cells; assay: HMBPP or anti-CD3/anti-CD28 activation of purified in vitro-expanded Vδ2+ T cells ± neutralizing anti-BTN2A1 mAb; type: cell-based, human; settings: HMBPP 0.5 ng/ml, 10 μg/ml neutralizing anti-BTN2A1 mAb, no APCs
Description: CD25 expression was determined by flow cytometry, and IFN-γ concentration was determined by cytometric bead array (BD Bioscience) as per manufacturer instructions.

γδ T cells = assay: Identification of BTN2A1 agonistic antibodies: CD25 and interferon γ of expanded γδ T cells; type: cell-based, human; settings: 10 μg/ml antibody overnight, vs isotype control BM4
Description: In some experiments γδ T cells were enriched by MACS using PE-Cy7-conjugated anti-γδTCR followed by anti-phycoerythrin-mediated magnetic bead purification (Miltenyi Biotec). After enrichment CD3+Vδ2+ γδ T cells were further purified by sorting using an Aria III (BD). Enriched γδ T cells were stimulated in vitro for 48 h with plate-bound anti-CD3ε (OKT3, 10 ug/ml, Bio-X-Cell), soluble anti-CD28 (CD28.2, 1 ug/ml, BD Pharmingen), phytohemagglutinin (0.5 μg/ml, Sigma), IL-15 (50 ng/ml), and recombinant human IL-2 (100 U/ml, PeproTech), followed by maintenance with IL-2 and IL-15 for 14-21 d. Cells were cultured in complete medium consisting of a 50:50 (v/v) mixture of RPMI-1640 and AIM-V (Invitrogen) supplemented with 10% (v/v) FCS (JRH Biosciences), penicillin (100 U/ml), streptomycin (100 μg/ml), Glutamax (2 mM), sodium pyruvate (1 mM), nonessential amino acids (0.1 mM), and HEPES buffer (15 mM), pH 7.2-7.5 (all from Invitrogen Life Technologies), plus 50 μM 2-mercaptoethanol (Sigma-Aldrich).
The inventors screened the panel of antibodies specific for BTN2A1, as described above, to identify those able to agonise BTN2A1. The inventors assessed the ability of anti-BTN2A1 antibodies to activate γδ T cells. The inventors assessed upregulation of CD25 on the surface of previously expanded γδ T cells following culturing the cells with 10 μg/ml anti-BTN2A1 antibodies or isotype control antibody (BM4) overnight.
The inventors additionally measured levels of interferon γ secreted by γδ T cells following culture in the presence of 10 μg/ml anti-BTN2A1 antibodies or isotype control antibody (BM4) overnight. Interferon γ secretion is another indicator of TCR-dependent activation.

[4] = test system: LM-MEL-62 and LM-MEL-75 melanoma cells; assay: Tumor killing/inhibition assay: γδ T cells with melanoma cells 2:1, MTS and CD25; type: cell-based, human; settings: γδ T cells : melanoma cells 2:1, three days, antibody 10 ug/ml
Description: In the following experiments, γδ T cells were enriched by MACS using PE-Cy7-conjugated anti-γδTCR followed by anti-phycoerythrin-mediated magnetic bead purification (Miltenyi Biotec). After enrichment CD3^+ Vδ2^+γδ T cells were further purified by sorting using an Aria III (BD). […] LM-MEL-62 and LM-MEL-75 melanoma cells were plated out 1×10^4 per well in a 96 well flat-bottom plate In RPMI1640 media supplemented with 10% FBS and left to adhere overnight. […] All conditions were repeated in triplicate. Cells were incubated at 37 degrees and on day 3 Vd2+ cells were acquired by flow cytometry. Live cells were gated and activation determined by analysis of CD25 expression. Melanoma cell viability was determined by MTS assay. MTS reagent was added to RPMI media at a 1:5 ratio and 100 ul added per well. Cells were incubated at 37 degrees for 30 minutes and the plate was read on a Spectrostar nano plate reader at 490 nm. […] Cultures were performed with γδ T cells and melanoma cells (LM-MEL-75 or LM-MEL-62) in a 2:1 ratio.

Vγ9Vδ2 cells [5] = assay: Flow cytometry: CD25 on Vγ9Vδ2 cells without phosphoantigen or APCs; type: cell-based, human; settings: no addition of APCs or phosphoantigen; listed as 253
Text: Vγ9Vδ2 cells were stained for CD3, Vδ2, CD25 and live dead viability dye as previously described and analysed on a Canto flow cytometer (BD). Cells were gated on lymphocytes, single cells, live cells, CD3+ Vδ2+, and activation determined based on CD25 expression.

[6] = γδT cells from patient 1 (melanoma patient)
[7] = γδT cells from a healthy donor, listed as 253
[8] = γδT cells from patient 1 (melanoma patient), listed as 253

## BTN2A1 tetramer-PE (biotinylated BTN2A1 ectodomain tetramerized with streptavidin-PE) (ligand)
[1]
  cells in the BTN2A1 tetramer+ gate (%): 100%

## O=P(O)(O)C(O)(Cn1ccnc1)P(=O)(O)O [Zoledronate, zoledronate, reference compound]
Vγ9Vδ2 cells [2]; γδT cells from a healthy donor
  GMCSF: 254.29 pg/mL and 268.62 pg/mL
  ICAM-1: 490.35 pg/mL and 504.11 pg/mL
  IFNγ: 58.38 pg/mL and 58.97 pg/mL
  IL-4: 0.1 pg/mL
  IL-8: 0.1 pg/mL
  IL-13: 5.22 pg/mL and 4.43 pg/mL
  IL-17A: 0.1 pg/mL
  MIP-1a: 121.61 pg/mL and 125.27 pg/mL
  MIP-1b: 1280.91 pg/mL and 1334.19 pg/mL
  TNFα: 13.03 pg/mL and 13.02 pg/mL
  sE-selectin: 190.9 pg/mL
  sP-Selectin: 200.54 pg/mL and 313.85 pg/mL
Vγ9Vδ2 cells [2]; [6]
  GMCSF: 650.17 pg/mL and 619.93 pg/mL
  ICAM-1: 968.87 pg/mL and 888.51 pg/mL
  IFNγ: 175.86 pg/mL and 171.42 pg/mL
  IL-4: 7.43 pg/mL and 7.68 pg/mL
  IL-8: 0.1 pg/mL
  IL-13: 235.43 pg/mL and 219.81 pg/mL
  IL-17A: 3.5 pg/mL and 4.08 pg/mL
  MIP-1a: 274.25 pg/mL and 273.85 pg/mL
  MIP-1b: 5061.49 pg/mL and 4756.68 pg/mL
  TNFα: 105.84 pg/mL and 102.44 pg/mL
  sE-selectin: 259.01 pg/mL and 287.88 pg/mL
  sP-Selectin: 1239.34 pg/mL and 1299.54 pg/mL

## Glycosylated BTN2A1 tet. (simple glycans) (from UniProt Q7KYR7) (ligand)
[1]
  cells in the BTN2A1 tetramer+ gate (%): 100%

B1: clone 267: anti-BTN2A1 mAb, partial inhibitor; VH SEQ ID NO: 132, VL SEQ ID NO: 133 (antibody, V domains shown)
VH: EVQLLESGGGLVQPGGSLRLSCAASGFTFSTYVMYWVRQAPGKGLEWVSSISPSGGLTVYVDSVKGRFTISRDNSKNTLYLQMNSLRAEDTAVYYCARVGYSSSDIWGQGTMVTVSS
VL: QYELTQPHSVSESPGKTVTISCTRNGGSIASNAVQWYQQRPGSAPITVIYDDSQRPSGVPDRFSGSIDSSSNTASLTISGLTTEDEADYYCLSFDTTSQIFGGGTKLTVL
modifications: amino acid sequence of clone 267 VH; amino acid sequence of clone 267 VL
[3]
  HMBPP-induced activation (CD25 upregulation, IFN-γ production): only a partial inhibitor

B2: clone 236: neutralizing anti-BTN2A1 mAb; VH SEQ ID NO: 116, VL SEQ ID NO: 117 (antibody, V domains shown)
VH: EVQLLESGGGLVQPGGSLRLSCAASGFTFSHYSMSWVRQAPGKGLEWVSGISSSGGFTPYADSVKGRFTISRDNSKNTLYLQMNSLRAEDTAVYYCTGGSGFDIWGQGTMVTVSS
VL: DIQMTQSPSTLSVSVGDRVTITCRASQTISSWLAWFQQKPGQAPKLLIYRASTLETGVPSRFSGSESGTTFTLTINGLQPDDLATYYCQQYATFPWTFGQGTKVEVK
modifications: amino acid sequence of clone 236 VH; amino acid sequence of clone 236 VL
[3]
  HMBPP-induced activation (CD25 upregulation, IFN-γ production): failed to upregulate CD25 and produce IFN-γ

B3: antibody 253: agonistic anti-BTN2A1 antibody; VL SEQ ID NO: 148, VH SEQ ID NO: 152 (antibody, V domains shown)
VH: EVQLLESGGGLVQPGGSLRLSCAASGFTFSTYDMYWVRQAPGKGLEWVSYISPSGGLTTYADSVKGRFTISRDNSKNTLYLQMNSLRAEDTAVYYCARDHYDSSGRATNYYYYMDVWGKGTTVTVSS
VL: QSALTQPPSASGTPGQRVTLSCSGSSSNIGSNRVNWYQQLPGTAPKLLIDSNNQRPSGVPDRFSGSKSGTSASLAISGLRSEDEVFYYCAAWDDSVHGPVFGGGTMVTVL
modifications: amino acid sequence of the VH of antibody 253; amino acid sequence of the VL of antibody 253
Vγ9Vδ2 cells [2]; across both donors
  cytokine/chemokine secretion, in words: weaker stimulus
Vγ9Vδ2 cells [2]; cancer patient derived Vγ9Vδ2 cells, vs isotype (BM4)
  cytokine/chemokine secretion, in words: No increase in any analyte
Vγ9Vδ2 cells [2]; healthy donor derived Vγ9Vδ2 cells, vs isotype (BM4)
  cytokine/chemokine secretion, in words: only small increases in the amounts of secreted GMCSF
Vγ9Vδ2 cells [2]; γδT cells from a healthy donor
  ICAM-1: 0.1 pg/mL
  IFNγ: 0.1 pg/mL
  IL-4: 0.1 pg/mL
  IL-8: 0.1 pg/mL
  IL-13: 0.1 pg/mL
  IL-17A: 0.1 pg/mL
  TNFα: 0.1 pg/mL
  sE-selectin: 0.1 pg/mL
  sP-Selectin: 0.1 pg/mL
Vγ9Vδ2 cells [2]; [7]
  MIP-1a: 16.32 pg/mL and 19.57 pg/mL
  MIP-1b: 117.31 pg/mL and 143.67 pg/mL
Vγ9Vδ2 cells [2]; [6]
  IL-4: 0.1 pg/mL
  IL-8: 0.1 pg/mL
  IL-17A: 0.1 pg/mL
  TNFα: 0.1 pg/mL
  sP-Selectin: 0.1 pg/mL
Vγ9Vδ2 cells [2]; [8]
  GMCSF: 32.02 pg/mL and 33.23 pg/mL
  ICAM-1: 480.81 pg/mL and 405.75 pg/mL
  IFNγ: 6.87 pg/mL and 3.45 pg/mL
  IL-13: 45.16 pg/mL and 36.92 pg/mL
  MIP-1a: 133.36 pg/mL and 137.25 pg/mL
  MIP-1b: 901.33 pg/mL and 941.65 pg/mL
  sE-selectin: 142.97 pg/mL and 101.78 pg/mL
γδ T cells
  level of secreted interferon γ: increase the level of secreted interferon γ
  percentage of γδ T cells expressing CD25: increase the percentage of γδ T cells expressing CD25
[4]
  CD25 level of expression on γδ T cells in co-culture: upregulated
Vγ9Vδ2 cells [5]
  activation of Vγ9Vδ2 cells by CD25 upregulation: activation of Vγ9Vδ2 independent of phosphoantigen; also recorded: can mimic phosphoantigen mediated activation to various degrees

B4: clone 266: neutralizing anti-BTN2A1 mAb; VH SEQ ID NO: 124, VL SEQ ID NO: 125 (antibody, V domains shown)
VH: EVQLLESGGGLVQPGGSLRLSCAASGFTFSMYTMMWVRQAPGKGLEWVSGIGSSGGHTKYADSVKGRFTISRDNSKNTLYLQMNSLRAEDTAVYYCARYGHTFETWGQGTMVTVSS
VL: QYELTQPPSASGTPGQRVTISCSGSSSNIGSNYVYWYQQLPGTAPKLLIYRNNQRPSGVPDRFSGSKSGTSASLAISGLRSEDEADYYCAAWDDSLSGSYVFGTGTKVTVL
modifications: amino acid sequence of clone 266 VH; amino acid sequence of clone 266 VL
[3]
  HMBPP-induced activation (CD25 upregulation, IFN-γ production): failed to upregulate CD25 and produce IFN-γ

B5: antibody 244: agonistic anti-BTN2A1 antibody; VL SEQ ID NO: 140, VH SEQ ID NO: 144 (antibody, V domains shown)
VH: EVQLLESGGGLVQPGGSLRLSCAASGFTFSEYSMSWVRQAPGKGLEWVSRIGPSGGGTVYADSVKGRFTISRDNSKNTLYLQMNSLRAEDTAMYYCARLGRGAVAELDYWGQGTLVTVSS
VL: QSVLTQPHSVSESPGKTVTISCTRSSGRIGSNYVHWYQHLPGRAPKLLIYGNSNRPSGVPDRFSGSKSGTSASLAITGLQADDEADYYCQTYDNNVWVFGGGTKLTVL
modifications: amino acid sequence of the VH of antibody 244; amino acid sequence of the VL of antibody 244
γδ T cells
  level of secreted interferon γ: increase the level of secreted interferon γ
  percentage of γδ T cells expressing CD25: increase the percentage of γδ T cells expressing CD25
